# Data as given in US20240100187A1 (AC IMMUNE, published 2024).
# “And” between values parts separate entries of the source, which are not always exact repeats. Identical values can stand only once.
# What was measured:
# [1] = target: T1, TDP-43 C-terminal peptide called TP-62; assay: BLI (Octet), TP-62 peptide loaded at 500 nM on streptavidin biosensors, antibody from 100 nM in 2-fold serial dilutions, 900 s association, 600 s dissociation [cont.]
# T1 construct: also called TP-62 peptide
# [2] = target: T1, TDP-43 C-terminal peptide called TP-62; assay: BLI (Octet), TP-62 on streptavidin biosensors, 2-fold dilutions from 100 nM, 30 C
# [3] = target: T2, human full length TDP-43 protein (human, UniProt Q13148 1-414); assay: indirect ELISA on coated human full length TDP-43, anti-human secondary antibody, absorbance A450nm; apical supernatants of hCMEC/D3 in the OrganoPlate BBB model 3 days after transduction, and purified control antibodies
# T2 construct: mature; Coated at 1 ug/ml on ELISA plates; also called hTDP-43 full length (FL) protein; human FL TDP-43
# T2 sequence (Q13148 whole entry): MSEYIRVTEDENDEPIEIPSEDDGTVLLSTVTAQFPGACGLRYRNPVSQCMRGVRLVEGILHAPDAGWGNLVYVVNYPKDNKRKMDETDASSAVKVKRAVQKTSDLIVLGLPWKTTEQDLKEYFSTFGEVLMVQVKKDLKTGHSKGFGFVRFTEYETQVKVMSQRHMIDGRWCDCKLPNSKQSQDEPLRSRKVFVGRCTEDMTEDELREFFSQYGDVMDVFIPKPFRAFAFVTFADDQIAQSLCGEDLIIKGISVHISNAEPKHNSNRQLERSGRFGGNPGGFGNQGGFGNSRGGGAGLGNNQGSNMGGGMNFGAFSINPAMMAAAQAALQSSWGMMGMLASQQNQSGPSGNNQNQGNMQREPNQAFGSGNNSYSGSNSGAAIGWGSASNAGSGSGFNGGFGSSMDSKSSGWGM
# Protocol: Supernatants from both top lane (apical) and bottom lane (basolateral) were collected 3 days post-transduction and antibody concentrations in the apical and basolateral compartments were determined by binding to human full-length (FL) TDP-43 using an indirect ELISA. In brief, ELISA plate coating with 1 μg/ml human FL TDP-43 was performed overnight in carbonate buffer at 4° C. Plates were washed with 0.05% Tween-20/PBS and then blocked with 1% bovine serum albumin (BSA) in 0.05% Tween-20/PBS for 1 hour at 37° C. Collected antibody-containing supernatants were then added to the plate and incubated for 2 hours at 37° C. after which the plates were washed. […] After the final wash, plates were incubated with pNPP solution and read at 405 nm after 1h using a plate reader (BioTek). […] Supernatants from both apical and basolateral sides were collected 3 days post-transduction and antibody concentrations in the apical and basolateral compartments were determined by binding to human FL TDP-43 using an indirect ELISA as described previously.
# [4] = target: T1, TDP-43 C-terminal peptide called TP-62; assay: BLI (Octet), TP-62 on streptavidin biosensors; range told for the IgG constructs, transfected or vectorized
binder,measurement,setting,value
"MAB1 IgG (anti-TDP-43 antibody, chimeric human IgG1) (antibody, V domains shown, Chimeric human IgG1 anti-TDP-43; The IRES and 2 promoter constructs give the same correctly matured protein, whether transfected (CHO) or AAV-vectorized, so they are treated as one molecule; also called MAB1 hIgG1; IgG standard) VH: EVQLQQSGPELVKPGASVKISCKTSGFTFTEYSMHWVKQSHGKSLEWIGGINPNNGGTSYNQKFKGKATLTVDKSSSTAYMELRSLTSEDSAVYYCARESWGQGTTLTVSS VL: not shown",Kd,[1],~4.66 nM
same,koff,[1],0.000435 s⁻¹
same,kon,[1],170000 M⁻¹ s⁻¹
same,Kd,[2],5.7 nM and 4.7 nM and 4.3 nM
same,binding result,[3],binds
same,Kd,[4],4 to 6 nM
